In paper PMC10524254:
Like-named read-outs stand apart in the source and are kept apart here.

CD79A: N112Q
localisation_or_trafficking (N-glycosylation at N112): no change

IgM: N209Q
localisation_or_trafficking (N-glycosylation at N209): no change

CD79B: N101Q
localisation_or_trafficking (N-glycosylation at N101): no change

CD79B: N73Q
localisation_or_trafficking (N-glycosylation at N73): no change
